According to paper PMC5356071:

Biological target: Zika virus envelope (E) glycoprotein, strain H/PF/2013 (French Polynesia), on mature infectious virions (Zika virus strain H/PF/2013, French Polynesia)
Experiment: cryo-EM structure; mature ZIKV H/PF/2013 particles incubated with ZIKV-117 Fab at 4 °C for 2–3 h, flash-frozen on lacey carbon grids; icosahedral reconstruction at 6.2 Å; E dimer (PDB 5IRE) and Fab domains (ZV-67, PDB 5KVG) fitted; occupancies by EMfit

B1: ZIKV-117 Fab (Fab fragment of the human monoclonal antibody ZIKV-117) (Fab, V domains shown)
VH: QVQLVESGGGVVRPGGSLRLSCAASGFTFKNYGIHWVRQAPGKGPEWVAFVRYDGNNKYYADSVKGRFTISRDNAKNTLSLQMNSLRVEDTAVYFCARDPETFGGFDYWGQGTLVTVSS
VL: ETVMTQSPATLSVSPGERGTLSCRASESVSSNLAWYQQKPGKAPRLLIYGASTRATGIPDRFSGSGSGTEFTLTISSLQSEDFAVYYCQQYYYSPRTFGQGTKVEVK
  Fabs bound per virion at saturation (Fabs per virion (180 sites)): 60
  Fabs per virion at the 2f sites (Fabs per virion): 21
  Fabs per virion at the 3f sites (Fabs per virion): 35
  occupancy at the 2f site (average Fab density relative to E protein density): 35%
  occupancy at the 3f site (average Fab density relative to E protein density): 58%
